Results on 1 molecule are retold here after PMC1559926 (2006).

The experiment addresses T1, Caveolin-1 1-178 (UniProt Q03135).
T1 chain: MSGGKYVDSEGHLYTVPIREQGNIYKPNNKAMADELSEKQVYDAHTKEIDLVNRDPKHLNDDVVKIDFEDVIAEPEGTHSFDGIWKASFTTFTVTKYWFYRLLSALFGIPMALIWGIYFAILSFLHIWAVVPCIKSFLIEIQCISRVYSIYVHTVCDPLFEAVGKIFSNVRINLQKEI
As to the kind of experiment: given as Ka.

In general, Kd refers to the equilibrium constant for the complex coming apart. High values mean a looser complex, low ones a tighter complex.

B1: PrP (protein)
chain: not shown
For B1, the Kd was ~1.18 nM.
